Measurements from PMC4490372, “Architecture of TFIIIC and its role in RNA polymerase III pre-initiation complex assembly” (Nature Communications, 2015).

Key:
[1] = target: T1, GST-tagged τ131 (123–566) E498K (S. cerevisiae, UniProt P33339 123-566, E498K); assay: pull-down; 15 μg GST-tagged τ131 on Glutathione Sepharose 4B; 300 nM τ138 or Bdp1, or 1 μM Brf1–TBP; 50 mM Tris pH 7.5, 150 mM NaCl, 2 mM DTT, 0.1% Tween20; 4 °C, 4 h; conditions: both partners purified
T1 construct: source: E. coli BL21 (DE3) Gold, purified (GST column, S200 SEC)
T1 sequence (looked up): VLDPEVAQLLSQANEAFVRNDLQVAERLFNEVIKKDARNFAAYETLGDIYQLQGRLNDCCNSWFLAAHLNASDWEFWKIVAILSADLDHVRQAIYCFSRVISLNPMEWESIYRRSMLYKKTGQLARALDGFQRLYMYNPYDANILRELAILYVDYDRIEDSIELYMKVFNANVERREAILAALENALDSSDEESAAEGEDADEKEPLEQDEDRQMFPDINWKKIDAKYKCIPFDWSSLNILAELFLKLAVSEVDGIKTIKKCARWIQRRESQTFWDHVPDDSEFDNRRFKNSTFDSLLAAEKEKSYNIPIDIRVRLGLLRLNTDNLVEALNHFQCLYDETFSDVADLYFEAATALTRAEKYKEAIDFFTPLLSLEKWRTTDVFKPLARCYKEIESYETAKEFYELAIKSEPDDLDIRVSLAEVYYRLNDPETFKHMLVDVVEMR

[2] = target: T2, GST-tagged τ131 (123–566) E497K (S. cerevisiae, UniProt P33339 123-566, E497K); assay: as above; conditions: both partners purified
T2 construct: source: E. coli BL21 (DE3) Gold, purified (GST column, S200 SEC)
T2 sequence (looked up): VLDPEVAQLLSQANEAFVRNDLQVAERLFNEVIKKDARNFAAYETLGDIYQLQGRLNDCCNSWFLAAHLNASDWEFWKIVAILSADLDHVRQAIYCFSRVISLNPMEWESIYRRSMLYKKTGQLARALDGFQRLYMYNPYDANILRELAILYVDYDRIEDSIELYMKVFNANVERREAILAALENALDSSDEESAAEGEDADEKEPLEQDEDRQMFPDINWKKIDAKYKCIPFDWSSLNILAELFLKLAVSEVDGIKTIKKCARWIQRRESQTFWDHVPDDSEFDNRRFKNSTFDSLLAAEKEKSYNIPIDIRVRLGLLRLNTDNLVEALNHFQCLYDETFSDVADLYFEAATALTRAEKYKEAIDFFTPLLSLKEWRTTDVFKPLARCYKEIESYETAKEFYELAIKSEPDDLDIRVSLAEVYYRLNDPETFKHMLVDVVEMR

[3] = target: T3, GST-tagged τ131 (123–566) E472K (S. cerevisiae, UniProt P33339 123-566, E472K); assay: as above; conditions: both partners purified
T3 construct: source: E. coli BL21 (DE3) Gold, purified (GST column, S200 SEC)
T3 sequence (looked up): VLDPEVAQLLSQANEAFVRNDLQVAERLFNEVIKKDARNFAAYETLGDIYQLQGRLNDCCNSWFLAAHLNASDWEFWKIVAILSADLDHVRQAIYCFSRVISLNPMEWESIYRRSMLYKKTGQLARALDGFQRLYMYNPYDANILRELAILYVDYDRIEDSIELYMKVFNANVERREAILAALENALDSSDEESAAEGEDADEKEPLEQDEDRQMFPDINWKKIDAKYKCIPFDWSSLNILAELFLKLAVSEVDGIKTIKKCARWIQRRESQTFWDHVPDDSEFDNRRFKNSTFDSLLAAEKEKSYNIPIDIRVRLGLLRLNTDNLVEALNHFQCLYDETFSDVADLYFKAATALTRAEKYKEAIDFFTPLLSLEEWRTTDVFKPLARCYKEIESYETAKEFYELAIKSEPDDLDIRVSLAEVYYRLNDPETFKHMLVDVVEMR

[4] = target: T4, τ131 (123–566) E498K (S. cerevisiae, UniProt P33339 123-566, E498K); assay: ITC; MicroCal ITC200; 15 μM τ138 in the cell, 150 μM τ131 in the syringe; 20 mM Tris pH 7.5, 150 mM NaCl, 2 mM β-mercaptoethanol; 25 °C; conditions: both partners purified
T4 construct: source: E. coli, purified by the same method as the wild type; not shown: His6, N-terminal, cleaved
T4 sequence (looked up): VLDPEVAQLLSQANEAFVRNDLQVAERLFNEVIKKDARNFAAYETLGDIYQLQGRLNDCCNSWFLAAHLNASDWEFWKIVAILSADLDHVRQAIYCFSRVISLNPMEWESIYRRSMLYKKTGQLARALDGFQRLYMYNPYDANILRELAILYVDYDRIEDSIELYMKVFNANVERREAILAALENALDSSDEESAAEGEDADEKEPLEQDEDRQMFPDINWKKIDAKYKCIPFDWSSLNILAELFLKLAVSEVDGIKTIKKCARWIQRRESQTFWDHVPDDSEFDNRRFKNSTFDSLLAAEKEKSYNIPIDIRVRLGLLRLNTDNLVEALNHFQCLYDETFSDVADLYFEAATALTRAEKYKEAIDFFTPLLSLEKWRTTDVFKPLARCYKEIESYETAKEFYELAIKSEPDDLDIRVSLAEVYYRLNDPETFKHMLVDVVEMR

[5] = target: T5, τ131 (123–566) E472K (S. cerevisiae, UniProt P33339 123-566, E472K); assay: as above; conditions: both partners purified
T5 construct: source: E. coli, purified by the same method as the wild type; not shown: His6, N-terminal, cleaved
T5 sequence (looked up): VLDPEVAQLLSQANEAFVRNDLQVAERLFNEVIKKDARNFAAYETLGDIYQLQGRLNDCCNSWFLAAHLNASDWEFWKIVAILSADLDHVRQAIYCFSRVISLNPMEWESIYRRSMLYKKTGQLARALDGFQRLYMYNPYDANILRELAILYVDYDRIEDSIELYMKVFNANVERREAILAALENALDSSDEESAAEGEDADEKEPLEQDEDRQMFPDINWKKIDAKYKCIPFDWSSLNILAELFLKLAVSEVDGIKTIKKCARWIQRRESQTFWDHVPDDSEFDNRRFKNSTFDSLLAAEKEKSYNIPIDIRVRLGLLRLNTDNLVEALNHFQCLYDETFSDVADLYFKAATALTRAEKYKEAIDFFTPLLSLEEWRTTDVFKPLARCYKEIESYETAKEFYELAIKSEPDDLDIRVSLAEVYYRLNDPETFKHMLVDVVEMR

[6] = target: T6, τ131 (123–566) E497K (S. cerevisiae, UniProt P33339 123-566, E497K); assay: as above; conditions: both partners purified
T6 construct: source: E. coli, purified by the same method as the wild type; not shown: His6, N-terminal, cleaved
T6 sequence (looked up): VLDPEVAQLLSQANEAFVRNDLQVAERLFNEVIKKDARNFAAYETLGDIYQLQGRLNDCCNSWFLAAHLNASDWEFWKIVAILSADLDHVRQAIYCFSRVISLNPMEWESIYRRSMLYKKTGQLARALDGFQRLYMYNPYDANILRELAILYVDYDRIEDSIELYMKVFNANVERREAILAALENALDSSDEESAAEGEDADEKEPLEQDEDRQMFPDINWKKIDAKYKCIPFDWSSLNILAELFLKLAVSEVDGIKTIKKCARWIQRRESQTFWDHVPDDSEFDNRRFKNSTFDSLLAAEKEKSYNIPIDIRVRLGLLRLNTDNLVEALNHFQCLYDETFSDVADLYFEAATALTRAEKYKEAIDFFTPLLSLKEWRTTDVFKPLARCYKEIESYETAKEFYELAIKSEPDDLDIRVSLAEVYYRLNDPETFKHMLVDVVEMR

[7] = target: T7, τ131 (123–566), TPR array, wild type (S. cerevisiae, UniProt P33339 123-566); assay: as above; conditions: both partners purified
T7 construct: also called τ131 TPR array; source: E. coli BL21 Star (DE3) pRARE, purified (Ni-NTA, TEV cleavage, S200 SEC); not shown: His6, N-terminal, cleaved
T7 sequence (looked up): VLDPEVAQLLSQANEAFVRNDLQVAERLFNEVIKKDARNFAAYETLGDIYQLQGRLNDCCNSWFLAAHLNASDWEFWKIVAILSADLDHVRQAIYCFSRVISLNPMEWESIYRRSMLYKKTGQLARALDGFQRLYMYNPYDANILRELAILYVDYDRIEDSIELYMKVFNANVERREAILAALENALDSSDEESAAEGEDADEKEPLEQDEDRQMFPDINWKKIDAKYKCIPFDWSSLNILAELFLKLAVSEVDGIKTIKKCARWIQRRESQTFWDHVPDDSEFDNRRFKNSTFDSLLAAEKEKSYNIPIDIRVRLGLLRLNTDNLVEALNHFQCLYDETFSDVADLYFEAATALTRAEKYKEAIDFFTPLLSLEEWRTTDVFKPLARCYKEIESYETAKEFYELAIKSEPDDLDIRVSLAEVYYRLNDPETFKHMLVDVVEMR

[8] = target: T8, τ131 (123–566) E472K (S. cerevisiae, UniProt P33339 123-566, E472K); assay: ITC
T8 sequence: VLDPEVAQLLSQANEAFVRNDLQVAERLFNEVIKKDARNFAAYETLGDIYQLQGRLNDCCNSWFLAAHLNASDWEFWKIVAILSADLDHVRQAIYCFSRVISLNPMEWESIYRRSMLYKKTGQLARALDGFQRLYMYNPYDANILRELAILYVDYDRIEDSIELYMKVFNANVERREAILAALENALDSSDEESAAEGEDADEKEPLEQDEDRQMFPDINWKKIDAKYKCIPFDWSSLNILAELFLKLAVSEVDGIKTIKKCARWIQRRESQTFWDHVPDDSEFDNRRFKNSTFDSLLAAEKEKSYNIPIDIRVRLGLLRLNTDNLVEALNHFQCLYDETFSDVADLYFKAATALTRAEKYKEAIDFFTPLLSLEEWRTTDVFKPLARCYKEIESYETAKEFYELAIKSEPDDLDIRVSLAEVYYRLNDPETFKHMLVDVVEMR

[9] = target: T9, τ131 (123–566) E498K (S. cerevisiae, UniProt P33339 123-566, E498K); assay: ITC
T9 sequence: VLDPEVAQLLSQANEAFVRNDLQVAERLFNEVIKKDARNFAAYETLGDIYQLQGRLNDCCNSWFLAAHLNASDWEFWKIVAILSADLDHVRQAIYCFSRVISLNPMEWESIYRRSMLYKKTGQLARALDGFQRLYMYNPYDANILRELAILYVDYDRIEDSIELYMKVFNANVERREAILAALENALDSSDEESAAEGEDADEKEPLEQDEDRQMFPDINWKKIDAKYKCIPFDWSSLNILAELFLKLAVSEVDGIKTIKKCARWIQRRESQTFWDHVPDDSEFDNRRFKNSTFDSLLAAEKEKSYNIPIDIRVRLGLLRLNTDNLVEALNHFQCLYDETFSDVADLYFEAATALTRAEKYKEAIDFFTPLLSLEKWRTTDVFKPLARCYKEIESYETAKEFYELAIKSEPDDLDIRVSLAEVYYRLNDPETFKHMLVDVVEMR

[10] = target: T10, τ131 (123–566) E497K (S. cerevisiae, UniProt P33339 123-566, E497K); assay: ITC
T10 sequence: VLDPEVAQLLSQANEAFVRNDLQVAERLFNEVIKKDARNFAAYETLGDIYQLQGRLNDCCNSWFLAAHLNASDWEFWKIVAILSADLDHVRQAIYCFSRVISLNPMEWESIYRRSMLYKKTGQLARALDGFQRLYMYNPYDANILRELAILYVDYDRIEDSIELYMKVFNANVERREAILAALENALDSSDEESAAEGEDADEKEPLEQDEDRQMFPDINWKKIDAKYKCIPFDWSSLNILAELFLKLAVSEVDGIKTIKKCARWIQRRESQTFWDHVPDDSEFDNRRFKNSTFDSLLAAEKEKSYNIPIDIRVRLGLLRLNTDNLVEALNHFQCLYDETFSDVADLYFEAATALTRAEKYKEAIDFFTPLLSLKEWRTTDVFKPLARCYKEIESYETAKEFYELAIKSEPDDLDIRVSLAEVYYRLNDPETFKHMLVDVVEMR

B1: τ138 (546–693), eWH-τIR (domain or fragment, S. cerevisiae, UniProt P34111 546-693, looked up)
chain: SARSLRSLQRQRAILKVMNTIGGVAYLREQFYESVSKYMGSTTTLDKKTVRGDVDLMVESEKLGARTEPVSGRKIIFLPTVGEDAIQRYILKEKDSKKATFTDVIHDTEIYFFDQTEKNRFHRGKKSVERIRKFQNRQKNAKIKASDD
notes: the cloning of this construct is not described; also called τ138 (eWH-τIR); central region of τ138; source: purified; expression of this construct not described
B1: binds [1]; binds [2]; binds [3]. B1: binds [4]; binds [5]; binds [6]. It also gave a Kd [7] of ~100 nM, a Kd [8] of 415 nM and a Kd [9] of 971 nM. It also gave a Kd [10] of 99 nM.
